Here are results for 29 sequences from the supplement of paper PMC9170038.

In the series the test system is MS2 coat protein. The experiment in a line: apparent KD of MS2 coat protein; designed switch direction (-1 OFF switch, 1 ON switch): -1; higher = weaker reporter binding. In a few lines:
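Designed RNA switches were transcribed on Illumina chips by stalled E. coli RNA polymerase and titrated with SNAP-549-labelled MS2 coat protein from 0.7 or 1.5 nM, doubling to 3 µM. Step length ran from 0.8–1.5 h at the lowest concentration to 10–20 min at the highest. The apparent KD is the median over clusters for each design, from curve-fitted normalised cluster fluorescence.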

[1] abbreviates: Eterna round: R95, input ligand: FMN 200 uM.
Setting [2] is: Eterna round: R95, input ligand: microRNA oligo, concentration not stated.
The mark [3] stands for this setting: Eterna round: R95, input ligand: none.
Where [4] appears, read: input ligand: microRNA oligo, concentration not stated.

As to “GAUUAUGCGAGCUUUAGGGACAUGAGGAUCACCCAUGUUCGUCUUAUUAAUCUGGGUACGCUAACAUACCUAAAUCU [JMF 41] (puzzle: Sensor v3, turn-off variant 1)”, the “apparent KD of MS2 coat protein” value is 28.5 nM under setting [1], 40.7 nM under setting [2] and 26.7 nM under setting [3].
The corresponding values for “GAUUAUGCGAGCUUUAGGGACAUGAGGAUCACCCAUGUUCGUCUUAUUAGUCUAGAUACACUGACAUACCUAAAUCU [JMF 57] (puzzle: Sensor v3, turn-off variant 1)” are 14.5 nM, 18.2 nM and 13.8 nM.
In the case of “GAUUAUGCGAGCUUUAGGGACAUGAGGAUCACCCAUGUUCGUCUUAUUAGUCUAGGUACGCUGACAUACCUAAAUCU [JMF 100] (puzzle: Sensor v3, turn-off variant 1)”, the “apparent KD of MS2 coat protein” value stood at 21.8 nM under setting [1], 32.9 nM under setting [2] and 21.6 nM under setting [3].
Consider “GAUUAUGCGAGCUUUAGGGACAUGAGGAUCACCCAUGUUCGUCUUAUUAGUCUGGAUACACUGACAUACCUAAAUCU [JMF 59] (puzzle: Sensor v3, turn-off variant 1)”, for which the “apparent KD of MS2 coat protein” value runs as follows: under setting [1], 14.8 nM; under setting [2], 20.9 nM; under setting [3], 16.4 nM.
“GAUUAUGCGAGCUUUAGGGACAUGAGGAUCACCCAUGUUCGUCUUAUUAGUCUGGAUGCACUGACAUACCUAAAUCU [JMF 81] (puzzle: Sensor v3, turn-off variant 1)”: the “apparent KD of MS2 coat protein” value by setting is: under setting [1], 18.4 nM; under setting [2], 25.2 nM; under setting [3], 19.1 nM.
Regarding “GAUUAUGCGAGCUUUAGGGACAUGAGGAUCACCCAUGUUCGUCUUAUUAGUCUGGGUGCACUAACAUACCUAAAUCU [JMF 37] (puzzle: Sensor v3, turn-off variant 1)”, the “apparent KD of MS2 coat protein” value was 135 nM under setting [1], 81.4 nM under setting [2] and 153 nM under setting [3].
The corresponding values for “GAUUAUGCGAGCUUUAGGGACAUGAGGAUCACCCAUGUUCGUCUUAUUGAUCUAGGUGCGCUAACAUACCUAAAUCU [JMF 49] (puzzle: Sensor v3, turn-off variant 1)” are 26.2 nM, 34.7 nM and 30 nM.
With “GAUUAUGCGAGCUUUAGGGACAUGAGGAUCACCCAUGUUCGUCUUAUUGGUCUGGAUGCACUGACAUACCUAAAUCU [JMF 82] (puzzle: Sensor v3, turn-off variant 1)”, the “apparent KD of MS2 coat protein” value is, setting by setting: under setting [1], 17.1 nM; under setting [2], 25.5 nM; under setting [3], 21.5 nM.
As to “GAUUGAGAGCAGGAUAUAUUCCUGAUGUAUGAAGUAGAAGGGCUCACAUGAGGAUCACCCAUGUGAUCCUGAAA [Mat - Exclusion 6 - Eli Mod - D3] (Eterna round: R97, puzzle: Exclusion 6)”, the “apparent KD of MS2 coat protein” value was found to be 13.8 nM (input ligand: FMN 200 uM) and 14 nM (input ligand: none).
The like results for “GAUUGAUAAGGAUAUACAUGAGGAUCACCCAUGUGCUUCAGCUAGGAGACUAGCAUUGGUAGAAGGUAUUAAUC [Mod of lroppy 12 - Jieux - Exclusion 3] (Eterna round: R97, puzzle: Exclusion 3)” were, in that order, 51.8 nM and 21.8 nM.
On to “GAUUUAGAGCAGGAUAUCAUAGAAAUGUAUGAAUGAGAAGGGCUCACAUGAGGAUCACCCAUGUGGUCCUAGAU [JL Dibiri mod 20] (Eterna round: R96, puzzle: Exclusion 6)”, for which the “apparent KD of MS2 coat protein” value under setting [4] was 21.6 nM.
With “GAUUUAGAGCAGGAUAUCAUAGAAAUGUAUGAAUGAGAAGGGCUCACAUGAGGAUCACCCAUGUGGUCCUAGAU [JL Dibiri mod 20] (puzzle: Exclusion 6)”, the “apparent KD of MS2 coat protein” value was 144 nM under setting [1], 23.5 nM under setting [2] and 20.3 nM under setting [3].
Take “GAUUUAGAGCAGGAUAUCAUAGAAUUAUAUGAAUGAGAAGGGCUCACAUGAGGAUCACCCAUGUGGUCCUAGAU [JL Dibiri mod 22] (Eterna round: R96, puzzle: Exclusion 6)”: the “apparent KD of MS2 coat protein” value reads like this: (input ligand: FMN 200 uM) 235 nM; under setting [4], 21.7 nM; (input ligand: none) 25.4 nM.
In the case of “GAUUUAGAGCAGGAUAUCAUAGAAUUAUAUGAAUGAGAAGGGCUCACAUGAGGAUCACCCAUGUGGUCCUAGAU [JL Dibiri mod 22] (puzzle: Exclusion 6)”, under setting [2], the “apparent KD of MS2 coat protein” value was determined as 22.8 nM.
Regarding “GCAACUACGGAUCUCAUCAACAUGAGGAUCACCCAUGUAGAAUGCGUACAAGCUUUUUGUUCUGGCAUCCCAUAGUC [Eternabot (L2) Solution 35] (Eterna round: R97, puzzle: Sensor, turn-off variant 1)”, the “apparent KD of MS2 coat protein” value is, setting by setting: (input ligand: FMN 200 uM) 63 nM; (input ligand: none) 65.3 nM.
The corresponding values for “GCAAGAAUAGGAUAUACACCAUGCCAGCUUCUAUACAACGCACAUGAGGAUCACCCAUGUAGAAGGGUUCUCUG [Exclusion-2-#12] (Eterna round: R97, puzzle: Exclusion 2)” are 225 nM and 262 nM.
The corresponding values for “GCAAGCUUAGGAUAUACAUGAGGAUCACCCAUGUCGUGAAUUUCGAUGCUUAAUGGCGGUAGAAGGAGGCUUGA [Eternabot (L2) Solution 12] (Eterna round: R97, puzzle: Exclusion 3)” are 31.2 nM and 18.8 nM.
Turning to “GCAAGCUUUUAGGUUUUCAACAUGAGGAUCACCCAUGUUCGUCUUGUGCUCGGGCUUGGGCGGUGUCCGGGUUUGGG [JL TOV1 3.75 sellena mod] (Eterna round: R97, puzzle: Sensor, turn-off variant 1)”, the “apparent KD of MS2 coat protein” value runs as follows: (input ligand: FMN 200 uM) 40.4 nM; (input ligand: none) 43.7 nM.
For the sequence “GCAAGCUUUUCGAUCCUCUACAUGAGGAUCACCCAUGUGCUCGAAUUGUUUGGUACUAUCACGAAAGUGAUAGUACA [Sensor, turn off variant 1 v.4] (Eterna round: R97, puzzle: Sensor, turn-off variant 1)”, the “apparent KD of MS2 coat protein” value reads like this: (input ligand: FMN 200 uM) 936 nM; (input ligand: none) 1150 nM.
As for “GCAAGCUUUUGCUCGUCUUACAUGAGGAUCACCCAUGUCGGGCCCGGCCGUCGCGGCCGGGCCCGCCGGGCGCCGGG [-41.9, -69.5 kcal, A 10%] (Eterna round: R97, puzzle: Sensor, turn-off variant 1)”, the “apparent KD of MS2 coat protein” value reads like this: (input ligand: FMN 200 uM) 53.5 nM; (input ligand: none) 64.1 nM.
Consider “GCAAGCUUUUGCUCGUCUUACAUGAGGAUCACCCAUGUCGGGUGCUUGCUUCGGGCCCGGGCCUCCCGGGCCCGGGC [-43.3, -67 kcal, A 10%] (Eterna round: R97, puzzle: Sensor, turn-off variant 1)”, for which the “apparent KD of MS2 coat protein” value by setting is: (input ligand: FMN 200 uM) 61.8 nM; (input ligand: none) 66.3 nM.
As to “GCAAGUUUUUUGUUUUUUAACAUGAGGAUCACCCAUGUGCGGUUAUAGUGUGUGUGAUUAGGAUCUUGUGGUCUUAG [JR_SV3TOV1_Sub102] (puzzle: Sensor v3, turn-off variant 1)”, the “apparent KD of MS2 coat protein” value is, setting by setting: under setting [1], 67.8 nM; under setting [2], 123 nM; under setting [3], 98.9 nM.
As to “GCACAUGCAGGAUAUGUAAAAUUUGACAUGAGGAUCACCCAUGUAGAUCCUGAAUUUCCUGCAGAAGGGCAUGUGC [Mat - Exclusion 5 - Eli Mod - D17] (Eterna round: R97, puzzle: Exclusion 5)”, the “apparent KD of MS2 coat protein” value was found to be 345 nM (input ligand: FMN 200 uM) and 98.8 nM (input ligand: none).
Consider “GCACGAAGUGUAGGAUAUCUGUGCGAUUAGCUCAGAGAAGGACACAUGAGGAUCACCCAUGUUUUCCACGGAUAGCAAACGUGC [Eli exng1 - 059] (Eterna round: R96, puzzle: Exclusion NG 1)”, for which the “apparent KD of MS2 coat protein” value reads like this: (input ligand: FMN 200 uM) 21 nM; under setting [4], 14.4 nM; (input ligand: none) 19.6 nM.
Consider “GCACGCAGUGUUAGGAUAUUAAUGGCACCGCAACGUAAGAAGGAACAUGAGGAUCACCCAUGUGUGCUAGAGAA [Eternabot (Original) Solution 14] (Eterna round: R97, puzzle: Brourd's mod of Exclusion 4)”, for which the “apparent KD of MS2 coat protein” value (input ligand: FMN 200 uM) came out at 30.1 nM and the “apparent KD of MS2 coat protein” value (input ligand: none) turned out to be 29.5 nM.
On to “GCACGGAGUGUAGGAUAUCUGUGCGAUUAGCUCAGAGAAGGACAUGAGGAUCACCCAUGUGUGUUCCAAACACAAAAUCCGUGC [Eli exng1 - 065] (Eterna round: R96, puzzle: Exclusion NG 1)”, for which the “apparent KD of MS2 coat protein” value came out at 47.2 nM (input ligand: FMN 200 uM), 12.8 nM under setting [4] and 18 nM (input ligand: none).
Take “GCACGGAGUGUAGGAUAUUAGUGCGAUUAGCACUGAGAAGGACAUGAGGAUCACCCAUGUUCCUCAAUAAUUAACCUUCCGUGC [Eli exng1 - 039] (Eterna round: R96, puzzle: Exclusion NG 1)”: the “apparent KD of MS2 coat protein” value came out at 16.7 nM (input ligand: FMN 200 uM), 8.49 nM under setting [4] and 12.9 nM (input ligand: none).
The like results for “GCACGGUAAUUCCAUAAAACCACAUGAGGAUCACCCAUGUCUCAGGAUAUGGUCUGGAUUACAGGCCAGAAGGGAGAGCCGUGC [Eli exng3 - 060] (Eterna round: R96, puzzle: Exclusion NG 3)” were, in that order, 10.4 nM, 8.88 nM and 13.3 nM.
Regarding “GCACGGUUGGUAGGAUAUCAUUGCGAUUAGCUAUGAGAAGGACCACAUGAGGAUCACCCAUGUCCUCUAAUUAGCCUACCGUGC [Eli exng1 - 015] (Eterna round: R96, puzzle: Exclusion NG 1)”, the “apparent KD of MS2 coat protein” value was found to be 383 nM (input ligand: FMN 200 uM), 109 nM under setting [4] and 151 nM (input ligand: none).
